The term Kd denotes a measure of binding affinity in units of concentration. A lower Kd goes with higher affinity.

Here are results for 3 molecules from patent US20130315910A1 (Xencor, published 2013).

Holding throughout (assay): SPR
(Surface plasmon resonance follows binding to a sensor surface in real time, without labels.)

One experiment has as its target T1, mFcγRIIb (Mus musculus, UniProt P08101).
T1 construct: extracellular region, C-terminal His- and GST-tag; also called mouse FcγRII
T1 sequence (receptor extracellular region, looked up): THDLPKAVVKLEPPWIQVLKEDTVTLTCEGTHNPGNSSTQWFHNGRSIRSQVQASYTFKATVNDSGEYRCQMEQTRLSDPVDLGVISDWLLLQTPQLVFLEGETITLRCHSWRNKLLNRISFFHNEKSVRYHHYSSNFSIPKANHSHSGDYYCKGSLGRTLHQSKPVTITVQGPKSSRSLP

In a further experiment the target is T2, cynoFcγRIIIa (Macaca fascicularis, UniProt Q8SPW2).
T2 construct: extracellular region, C-terminal His- and GST-tag; also called cynomolgus monkey FcγRIIIa
T2 sequence (Q8SPW2 17-208): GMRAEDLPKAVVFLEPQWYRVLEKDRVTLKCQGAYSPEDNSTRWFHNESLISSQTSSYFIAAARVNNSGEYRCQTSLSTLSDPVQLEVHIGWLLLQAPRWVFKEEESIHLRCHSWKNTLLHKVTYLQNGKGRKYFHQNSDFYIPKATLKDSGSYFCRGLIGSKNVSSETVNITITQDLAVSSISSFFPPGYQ

Another experiment addresses T3, mFcγRIV.
T3 construct: also called mouse FcγRIV; not shown: C-terminal His and GST tags (named only on our card)
T3 chain: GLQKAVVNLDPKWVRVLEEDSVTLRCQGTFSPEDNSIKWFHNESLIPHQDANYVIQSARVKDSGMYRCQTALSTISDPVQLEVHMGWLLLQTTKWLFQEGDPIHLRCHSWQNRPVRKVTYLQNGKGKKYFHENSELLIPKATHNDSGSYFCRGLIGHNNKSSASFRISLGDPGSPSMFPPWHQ

Another experiment deals with T4, cynoFcγRIIb (Macaca fascicularis, UniProt A0A140HDP4).
T4 construct: extracellular region, C-terminal His- and GST-tag; also called cynomolgus monkey FcγRIIb
T4 sequence (receptor extracellular region): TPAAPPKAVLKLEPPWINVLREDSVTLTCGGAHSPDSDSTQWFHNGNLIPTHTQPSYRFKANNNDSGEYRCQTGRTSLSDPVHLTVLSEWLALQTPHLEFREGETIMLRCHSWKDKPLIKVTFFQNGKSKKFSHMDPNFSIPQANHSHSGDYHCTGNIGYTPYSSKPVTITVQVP

The target in experiment [1] is T5, human FcγRIIIa (158V), His- and GST-tagged (human, UniProt P08637 17-208).
T5 construct: also called V158 FcγRIIIa; VIIIa; not shown: 6xHis and GST tags of the pTT5 vector
T5 sequence (P08637 17-208 F176V): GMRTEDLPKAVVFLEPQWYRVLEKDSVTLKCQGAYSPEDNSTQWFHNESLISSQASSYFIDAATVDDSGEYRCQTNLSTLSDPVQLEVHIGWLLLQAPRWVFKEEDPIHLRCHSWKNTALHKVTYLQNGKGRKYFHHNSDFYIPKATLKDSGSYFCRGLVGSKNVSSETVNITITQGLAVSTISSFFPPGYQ

For experiment [2], the target named is T6, human FcγRI receptor protein (R&D Systems) (human, UniProt P12314 16-288).
T6 construct: also called soluble FcγRI; solFcγRI
T6 sequence (P12314 16-288 limits assumed): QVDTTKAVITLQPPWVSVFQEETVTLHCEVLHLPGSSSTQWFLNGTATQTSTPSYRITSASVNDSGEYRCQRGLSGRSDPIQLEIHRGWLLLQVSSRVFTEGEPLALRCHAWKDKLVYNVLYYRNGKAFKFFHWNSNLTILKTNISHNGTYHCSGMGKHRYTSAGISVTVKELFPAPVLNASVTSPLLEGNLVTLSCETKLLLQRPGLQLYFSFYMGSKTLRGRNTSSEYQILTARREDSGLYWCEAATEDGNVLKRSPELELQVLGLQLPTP

Experiment [3] has as its target T7, human FcγRIIa (131R), His- and GST-tagged (human, UniProt P12318 34-217).
T7 construct: Expressed in HEK293T cells, purified by nickel chromatography; also called R131 FcγRIIa; not shown: 6xHis and GST tags of the pTT5 vector
T7 sequence (looked up): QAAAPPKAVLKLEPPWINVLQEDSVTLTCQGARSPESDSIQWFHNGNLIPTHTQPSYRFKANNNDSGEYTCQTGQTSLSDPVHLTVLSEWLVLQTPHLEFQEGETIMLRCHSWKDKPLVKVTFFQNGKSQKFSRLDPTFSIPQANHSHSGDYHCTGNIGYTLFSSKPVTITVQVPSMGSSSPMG

In experiment [4] the target is T8, human FcγRIIb receptor protein (R&D Systems) (human, UniProt P31994 46-217).
T8 construct: Bought protein injected over captured antibody in Biacore; also called CD32b
T8 sequence (looked up): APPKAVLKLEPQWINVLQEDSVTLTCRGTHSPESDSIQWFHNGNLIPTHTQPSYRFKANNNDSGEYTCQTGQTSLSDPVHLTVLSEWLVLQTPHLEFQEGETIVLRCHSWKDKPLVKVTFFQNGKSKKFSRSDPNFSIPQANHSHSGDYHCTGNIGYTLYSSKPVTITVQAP

In experiment [5] the target is T9, human FcγRIIa (131H), His- and GST-tagged (human, UniProt P12318 34-217).
T9 construct: also called H131 FcγRIIa; HIIa; not shown: 6xHis and GST tags of the pTT5 vector
T9 sequence (looked up): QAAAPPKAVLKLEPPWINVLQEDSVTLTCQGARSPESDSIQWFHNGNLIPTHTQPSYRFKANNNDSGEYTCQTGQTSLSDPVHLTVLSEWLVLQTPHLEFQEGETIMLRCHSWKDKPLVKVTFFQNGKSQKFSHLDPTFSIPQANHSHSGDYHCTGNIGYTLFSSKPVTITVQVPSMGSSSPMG
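Throughout, for Fold vs WT IgG1 (off-rate): fold improvement over WT IgG1 so higher means slower dissociation than WT.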

B1: A327D (antibody, human IgG1, kappa)
heavy: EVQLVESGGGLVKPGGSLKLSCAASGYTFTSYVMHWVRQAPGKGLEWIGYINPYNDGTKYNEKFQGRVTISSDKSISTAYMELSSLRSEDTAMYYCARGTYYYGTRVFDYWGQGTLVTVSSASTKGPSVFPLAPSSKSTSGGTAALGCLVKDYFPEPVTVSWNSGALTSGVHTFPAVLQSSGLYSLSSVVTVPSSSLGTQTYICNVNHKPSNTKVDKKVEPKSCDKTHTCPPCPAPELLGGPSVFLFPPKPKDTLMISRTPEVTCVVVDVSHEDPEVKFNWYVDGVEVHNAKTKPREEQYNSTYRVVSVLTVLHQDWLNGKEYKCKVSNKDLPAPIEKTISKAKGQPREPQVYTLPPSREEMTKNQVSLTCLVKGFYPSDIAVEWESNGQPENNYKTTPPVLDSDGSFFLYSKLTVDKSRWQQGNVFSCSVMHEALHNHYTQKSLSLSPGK
light: DIVMTQSPATLSLSPGERATLSCRSSKSLQNVNGNTYLYWFQQKPGQSPQLLIYRMSNLNSGVPDRFSGSGSGTEFTLTISSLEPEDFAVYYCMQHLEYPITFGAGTKLEIKRTVAAPSVFIFPPSDEQLKSGTASVVCLLNNFYPREAKVQWKVDNALQSGNSQESVTEQDSKDSTYSLSSTLTLSKADYEKHKVYACEVTHQGLSSPVTKSFNRGEC
notes: HuAM4G7 anti-CD19 IgG1 (m1) with this Fc substitution, EU index; copies: 2 + 2
Take B1: the “Fold vs WT IgG1 (Kd)” value with mFcγRIIb turned out to be 1.86 fold; with cynoFcγRIIIa, 0.783 fold; with mFcγRIV, 0.315 fold; with cynoFcγRIIb, 1.16 fold. Besides, the “Fold vs WT IgG1 (off-rate)” value worked out at 4.1 fold in the experiment with mFcγRIIb, 0.515 fold in the experiment with cynoFcγRIIIa, 0.876 fold with mFcγRIV and 1.15 fold in the experiment with cynoFcγRIIb. Further, the “Fold vs WT IgG1” value in experiment [1] came out at 0.398 fold; in experiment [2], 2.06 fold; in experiment [3] it was 1.6 fold; in experiment [4] it was 1.33 fold; in [5] it was 0.733 fold. In addition, the Kd was determined as 481 nM in experiment [1]; 0.16 nM in experiment [2]; 536 nM in experiment [3]; 1100 nM in [4]; 882 nM in experiment [5].

B2: H268D (antibody, human IgG1, kappa)
heavy: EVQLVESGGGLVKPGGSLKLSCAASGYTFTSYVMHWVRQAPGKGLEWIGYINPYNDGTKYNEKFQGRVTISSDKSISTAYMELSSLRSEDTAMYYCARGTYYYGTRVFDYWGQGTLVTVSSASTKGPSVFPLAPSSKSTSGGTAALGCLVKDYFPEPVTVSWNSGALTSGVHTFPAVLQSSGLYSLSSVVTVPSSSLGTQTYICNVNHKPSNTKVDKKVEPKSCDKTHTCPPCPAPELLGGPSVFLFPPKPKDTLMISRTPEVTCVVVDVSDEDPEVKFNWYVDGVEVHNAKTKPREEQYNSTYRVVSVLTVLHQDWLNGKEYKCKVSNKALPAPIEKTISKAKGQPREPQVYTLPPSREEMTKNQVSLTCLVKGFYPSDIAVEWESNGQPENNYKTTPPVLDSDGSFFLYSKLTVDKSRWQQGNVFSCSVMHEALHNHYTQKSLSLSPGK
light: DIVMTQSPATLSLSPGERATLSCRSSKSLQNVNGNTYLYWFQQKPGQSPQLLIYRMSNLNSGVPDRFSGSGSGTEFTLTISSLEPEDFAVYYCMQHLEYPITFGAGTKLEIKRTVAAPSVFIFPPSDEQLKSGTASVVCLLNNFYPREAKVQWKVDNALQSGNSQESVTEQDSKDSTYSLSSTLTLSKADYEKHKVYACEVTHQGLSSPVTKSFNRGEC
notes: as for B1
As to B2, the “Fold vs WT IgG1 (Kd)” value with mFcγRIIb is 1.11 fold; in the experiment with cynoFcγRIIIa, 4.24 fold; in the experiment with mFcγRIV it was 0.47 fold; in the experiment with cynoFcγRIIb it was 1.48 fold. Also, the “Fold vs WT IgG1 (off-rate)” value with mFcγRIIb turned out to be 2.63 fold; with cynoFcγRIIIa, 1.65 fold; with mFcγRIV it was 1.45 fold; in the experiment with cynoFcγRIIb, 3.94 fold. In addition, the “Fold vs WT IgG1” value was 3.08 fold in experiment [1]; 2.35 fold in experiment [2]; 4.19 fold in [3]; 3.06 fold in experiment [4]; 1.89 fold in [5]. In addition, the Kd in experiment [1] came out at 62.2 nM; in experiment [2], 0.14 nM; in experiment [3], 205 nM; in experiment [4], 480 nM; in experiment [5], 342 nM.

B3: H268E (antibody, human IgG1, kappa)
heavy: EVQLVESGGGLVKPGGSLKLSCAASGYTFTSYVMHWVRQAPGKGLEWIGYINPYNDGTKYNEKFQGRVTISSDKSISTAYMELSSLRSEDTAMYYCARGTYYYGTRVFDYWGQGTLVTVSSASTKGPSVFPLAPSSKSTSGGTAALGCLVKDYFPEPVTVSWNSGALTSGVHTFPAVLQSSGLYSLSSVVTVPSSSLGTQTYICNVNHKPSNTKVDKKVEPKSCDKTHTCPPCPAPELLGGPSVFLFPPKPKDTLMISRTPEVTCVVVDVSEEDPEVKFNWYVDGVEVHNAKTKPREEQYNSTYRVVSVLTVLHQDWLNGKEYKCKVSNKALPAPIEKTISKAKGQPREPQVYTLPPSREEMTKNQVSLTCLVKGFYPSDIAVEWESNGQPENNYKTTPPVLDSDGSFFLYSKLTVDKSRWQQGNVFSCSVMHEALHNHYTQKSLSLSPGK
light: DIVMTQSPATLSLSPGERATLSCRSSKSLQNVNGNTYLYWFQQKPGQSPQLLIYRMSNLNSGVPDRFSGSGSGTEFTLTISSLEPEDFAVYYCMQHLEYPITFGAGTKLEIKRTVAAPSVFIFPPSDEQLKSGTASVVCLLNNFYPREAKVQWKVDNALQSGNSQESVTEQDSKDSTYSLSSTLTLSKADYEKHKVYACEVTHQGLSSPVTKSFNRGEC
notes: as for B1
Turning to B3, the “Fold vs WT IgG1 (off-rate)” value turned out to be 2.44 fold with mFcγRIIb, 1.51 fold in the experiment with cynoFcγRIIIa, 1.42 fold with mFcγRIV and 2.23 fold with cynoFcγRIIb. Also, the “Fold vs WT IgG1” value was 2.19 fold in experiment [1]; 2.74 fold in experiment [2]; 3.19 fold in experiment [3]; 2.62 fold in experiment [4]; 1.43 fold in experiment [5]. Besides, the Kd came to 87.5 nM in experiment [1]; 0.12 nM in [2]; 269 nM in experiment [3]; 560 nM in [4]; 453 nM in experiment [5].
